Experimental findings from patent US20180155451A1 (published 2018) are described below.

For assay [1], the target named is T1, FcγRIIb (extracellular domain, C-terminal His tag) (human, UniProt P31994 43-217).
T1 construct: extracellular domain; also called FcgRIIb; 2b; not shown: His tag attached to the C terminus
T1 sequence (looked up): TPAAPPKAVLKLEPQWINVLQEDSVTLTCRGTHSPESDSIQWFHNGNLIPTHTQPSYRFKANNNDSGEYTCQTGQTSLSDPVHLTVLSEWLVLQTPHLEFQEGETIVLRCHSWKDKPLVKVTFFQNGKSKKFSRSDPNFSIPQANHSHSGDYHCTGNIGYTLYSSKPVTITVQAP
Briefly: SPR (Biacore), antibody captured on antigen-peptide chip, FcγR as analyte; relative binding amount. How it is done:
(§1) The heterodimerized antibodies He Abs in which one of the H chains was introduced with an alteration were assayed for their binding activities to each activating FcγR and inhibitory FcγR according to the method described in Example 4. […] The activating FcγRs in FIGS. 26, 27, 28, and 29 are FcγRIa, FcγRIIa (R), FcγRIIa (H), and FcγRIIIa, respectively.
(§2) Analysis of interaction between objective antibody and the FcγR was carried out using Biacore T100 (GE Healthcare). HBS-EP+ (GE Healthcare) was used as the running buffer, and the measurement temperature was set to 25° C. Chips produced by immobilizing the antigen peptide by the amine coupling method to a Series S Sencor Chip CM5 (GE Healthcare), or alternatively, chips produced by allowing preliminarily biotinylated antigen peptides to interact with and immobilize onto a Series S Sensor Chip SA (certified) (GE Healthcare) were used. Antibodies of interest were captured onto an antigen peptide-immobilized chip, and allowed to interact to each FcγR diluted with running buffer. To regenerate and repeatedly use the chip, the antibodies captured on the chip were washed off by reacting 10 mM glycine-HCl, pH 1.5.

Assay [2] addresses T2, FcγRIIa R (extracellular domain, C-terminal His tag) (human, UniProt P12318 34-217).
T2 construct: extracellular domain; also called FcgRIIa R type; 2aR; not shown: His tag attached to the C terminus
T2 sequence (looked up): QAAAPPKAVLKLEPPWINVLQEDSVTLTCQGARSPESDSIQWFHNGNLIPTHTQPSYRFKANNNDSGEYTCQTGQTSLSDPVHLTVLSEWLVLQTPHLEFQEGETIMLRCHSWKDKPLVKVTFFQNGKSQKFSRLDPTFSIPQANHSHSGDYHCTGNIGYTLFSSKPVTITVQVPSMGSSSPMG
The description is as above. How it is done:
as §1, §2

Assay [3] deals with T2, FcγRIIa R (extracellular domain, …). Briefly: ratio of He/Con_2aR to He/Con_2b (FcγRIIb); SPR relative binding. How it is done: as §1, §2

B1: GpH7-A5/GpH7-B3 variant D265_06M/GpL16-k0 (antibody, human IgG1, kappa)
heavy 1: not shown
heavy 2: not shown
light: DIVMTQSPLSLPVTPGEPASISCQASESLVHSNRNTYLHWYLQKPGQSPQLLIYKVSNRFSGVPDRFSGSGSGTDFTLKISRVEAEDVGVYYCSQNTHVPPTFGQGTKVEIERTVAAPSVFIFPPSDEQLKSGTASVVCLLNNFYPREAKVQWKVDNALQSGNSQESVTEQDSKDSTYSLSSTLTLSKADYEKHKVYACEVTHQGLSSPVTKSFNRGEC
notes: Heterodimerized anti-glypican-3 IgG1; alteration in only one H chain (GpH7-B3 side); also called He Ab
In the case of B1, the He/Con_2b in assay [1] was 10 % of control (GpH7-A5/GpH7-B3/GpL16-k0 = 100). For the same molecule, the He/Con_2aR in assay [2] was 15.8 % of control (GpH7-A5/GpH7-B3/GpL16-k0 = 100). The “He_2aR/2b (IIaR/IIb)” value in assay [3] came out at 1.58.

B2: GpH7-A5/GpH7-B3 variant D265_03V/GpL16-k0 (antibody, human IgG1, kappa)
heavy 1: not shown
heavy 2: not shown
light: DIVMTQSPLSLPVTPGEPASISCQASESLVHSNRNTYLHWYLQKPGQSPQLLIYKVSNRFSGVPDRFSGSGSGTDFTLKISRVEAEDVGVYYCSQNTHVPPTFGQGTKVEIERTVAAPSVFIFPPSDEQLKSGTASVVCLLNNFYPREAKVQWKVDNALQSGNSQESVTEQDSKDSTYSLSSTLTLSKADYEKHKVYACEVTHQGLSSPVTKSFNRGEC
notes: as for B1
B2: in assay [1], the He/Con_2b is 3.2 % of control (GpH7-A5/GpH7-B3/GpL16-k0 = 100). In addition, the He/Con_2aR in assay [2] was 5.8 % of control (GpH7-A5/GpH7-B3/GpL16-k0 = 100). The “He_2aR/2b (IIaR/IIb)” value in assay [3] came to 1.8.

B3: GpH7-A5/GpH7-B3 variant S239_11K/GpL16-k0 (antibody, human IgG1, kappa)
heavy 1: not shown
heavy 2: not shown
light: DIVMTQSPLSLPVTPGEPASISCQASESLVHSNRNTYLHWYLQKPGQSPQLLIYKVSNRFSGVPDRFSGSGSGTDFTLKISRVEAEDVGVYYCSQNTHVPPTFGQGTKVEIERTVAAPSVFIFPPSDEQLKSGTASVVCLLNNFYPREAKVQWKVDNALQSGNSQESVTEQDSKDSTYSLSSTLTLSKADYEKHKVYACEVTHQGLSSPVTKSFNRGEC
notes: as for B1
Regarding B3, the He/Con_2b in assay [1] is 24.7 % of control (GpH7-A5/GpH7-B3/GpL16-k0 = 100). In addition, the He/Con_2aR in assay [2] is 48.5 % of control (GpH7-A5/GpH7-B3/GpL16-k0 = 100). The “He_2aR/2b (IIaR/IIb)” value in assay [3] was 1.96.

B4: GpH7-A5/GpH7-B3 variant D265_02A/GpL16-k0 (antibody, human IgG1, kappa)
heavy 1: not shown
heavy 2: not shown
light: DIVMTQSPLSLPVTPGEPASISCQASESLVHSNRNTYLHWYLQKPGQSPQLLIYKVSNRFSGVPDRFSGSGSGTDFTLKISRVEAEDVGVYYCSQNTHVPPTFGQGTKVEIERTVAAPSVFIFPPSDEQLKSGTASVVCLLNNFYPREAKVQWKVDNALQSGNSQESVTEQDSKDSTYSLSSTLTLSKADYEKHKVYACEVTHQGLSSPVTKSFNRGEC
notes: as for B1
With B4, the He/Con_2b in assay [1] is 19.9 % of control (GpH7-A5/GpH7-B3/GpL16-k0 = 100). In addition, the He/Con_2aR in assay [2] is 33.9 % of control (GpH7-A5/GpH7-B3/GpL16-k0 = 100). Further, the “He_2aR/2b (IIaR/IIb)” value in assay [3] was found to be 1.71.

B5: GpH7-A5/GpH7-B3 variant P238_11K/GpL16-k0 (antibody, human IgG1, kappa)
heavy 1: not shown
heavy 2: not shown
light: DIVMTQSPLSLPVTPGEPASISCQASESLVHSNRNTYLHWYLQKPGQSPQLLIYKVSNRFSGVPDRFSGSGSGTDFTLKISRVEAEDVGVYYCSQNTHVPPTFGQGTKVEIERTVAAPSVFIFPPSDEQLKSGTASVVCLLNNFYPREAKVQWKVDNALQSGNSQESVTEQDSKDSTYSLSSTLTLSKADYEKHKVYACEVTHQGLSSPVTKSFNRGEC
notes: as for B1
Take B5: the He/Con_2b in assay [1] was 18.1 % of control (GpH7-A5/GpH7-B3/GpL16-k0 = 100). Moreover, the He/Con_2aR in assay [2] was 36.9 % of control (GpH7-A5/GpH7-B3/GpL16-k0 = 100). Further, the “He_2aR/2b (IIaR/IIb)” value in assay [3] is 2.03.

B6: GpH7-A5/GpH7-B3 variant D265_08L/GpL16-k0 (antibody, human IgG1, kappa)
heavy 1: not shown
heavy 2: not shown
light: DIVMTQSPLSLPVTPGEPASISCQASESLVHSNRNTYLHWYLQKPGQSPQLLIYKVSNRFSGVPDRFSGSGSGTDFTLKISRVEAEDVGVYYCSQNTHVPPTFGQGTKVEIERTVAAPSVFIFPPSDEQLKSGTASVVCLLNNFYPREAKVQWKVDNALQSGNSQESVTEQDSKDSTYSLSSTLTLSKADYEKHKVYACEVTHQGLSSPVTKSFNRGEC
notes: as for B1
As for B6, the He/Con_2b in assay [1] was 4.6 % of control (GpH7-A5/GpH7-B3/GpL16-k0 = 100). Moreover, in assay [2], the He/Con_2aR is 6.6 % of control (GpH7-A5/GpH7-B3/GpL16-k0 = 100). Moreover, the “He_2aR/2b (IIaR/IIb)” value in assay [3] is 1.46.

B7: GpH7-A5/GpH7-B3 variant S239_04F/GpL16-k0 (antibody, human IgG1, kappa)
heavy 1: not shown
heavy 2: not shown
light: DIVMTQSPLSLPVTPGEPASISCQASESLVHSNRNTYLHWYLQKPGQSPQLLIYKVSNRFSGVPDRFSGSGSGTDFTLKISRVEAEDVGVYYCSQNTHVPPTFGQGTKVEIERTVAAPSVFIFPPSDEQLKSGTASVVCLLNNFYPREAKVQWKVDNALQSGNSQESVTEQDSKDSTYSLSSTLTLSKADYEKHKVYACEVTHQGLSSPVTKSFNRGEC
notes: Heterodimerized anti-glypican-3 IgG1; also called He Ab
Turning to B7, the He/Con_2b in assay [1] is 44.1 % of control (GpH7-A5/GpH7-B3/GpL16-k0 = 100). For the same molecule, the He/Con_2aR in assay [2] was 54.8 % of control (GpH7-A5/GpH7-B3/GpL16-k0 = 100). In addition, the “He_2aR/2b (IIaR/IIb)” value in assay [3] worked out at 1.24.

B8: GpH7-A5/GpH7-B3 variant S239_12R/GpL16-k0 (antibody, human IgG1, kappa)
heavy 1: not shown
heavy 2: not shown
light: DIVMTQSPLSLPVTPGEPASISCQASESLVHSNRNTYLHWYLQKPGQSPQLLIYKVSNRFSGVPDRFSGSGSGTDFTLKISRVEAEDVGVYYCSQNTHVPPTFGQGTKVEIERTVAAPSVFIFPPSDEQLKSGTASVVCLLNNFYPREAKVQWKVDNALQSGNSQESVTEQDSKDSTYSLSSTLTLSKADYEKHKVYACEVTHQGLSSPVTKSFNRGEC
notes: as for B1
As for B8, the He/Con_2b in assay [1] was 39.1 % of control (GpH7-A5/GpH7-B3/GpL16-k0 = 100). In addition, in assay [2], the He/Con_2aR was 53.9 % of control (GpH7-A5/GpH7-B3/GpL16-k0 = 100). In addition, the “He_2aR/2b (IIaR/IIb)” value in assay [3] came to 1.38.
